Experimental data as given in patent US10323078B2, “Isolated peptides and fragments thereof from fibrinogen for use as drugs, particularly in skin inflammatory diseases” (Universite Paris Descartes, priority 2015, dated 2019).

How the values were obtained:
[1] = system: Pfg binding to fibrinogen; assay: Inhibition of biotinylated Pfg binding to coated fibrinogen; set-up: species or system Propionibacterium acnes; details: biotinylated Pfg pretreated with increasing amount of recombinant peptide 1 h at 37° C.; fibrinogen coated 25 μg per well
Procedure: FIG. 9: Dose-dependent inhibition of biotinylated Pfg binding to fibrinogen by fibrinogen-derived peptide. Biotinylated PFg (0.4 mg) was pretreated with increasing amount of recombinant peptides Fg1 (♦), Fg2 (▪) or BSA as control (●) for 1 h at 37° C., and the binding activity to coated fibrinogen on polystyrene plate (25 μg per well) was evaluated. Results are expressed as mean±SD. Each point was done in quadruplet.
Since it has been shown that only Fg1 was able to recognize Pfg, biotinylated Pfg was pre-treated with various concentrations of purified Fg1 and tested its ability to recognize immobilized fibrinogen. Fg2 and BSA were used as neative controls (FIG. 9).

P. acnes RON strain = assay: Adhesion assay, biotinylated P. acnes binding to keratinocytes (NHDK); format: cell-based, Propionibacterium acnes; details: bacteria pretreated 0.87 to 7 μM, 1 h at 37° C.
Procedure: The bacterial suspension was adjusted at 600 nm to the desired concentration, pretreated with peptides Fg1 and Fg2 at the final concentration ranging from 0.87 to 7 μM for 1 h at 37° C. and deposited on the previously saturated cells with a solution of PBS SVF 2% for 2 h. After incubation for 1 h at 37° C., unbound bacteria are removed by 3 washes with PBS and fixed bacteria are detected by a streptavidin-peroxidase solution of 0.5 μg/ml for 30 min.
Whole P. acnes bacteria are labelled by biotinylation, pre-treated or not with the peptides and contacted with the various cell lines. After removal of the unfixed bacteria, the adhesion activity was measured spectrophotometrically by using the streptavidin-peroxidase conjugate and a chromogenic substrate.
The ability of P. acnes strains 6919, RON and PIE was tested at 3 concentrations to adhere to various cells lines. It has been shown that the strains of P. acnes tested bound to the three kind of cell lines tested (keratinocytes, monocytes and fibroblast) with a maximum adhesion strength found for keratinocytes (FIG. 11). Knowing that P. acnes is able to recognize fibrinogen, it was used human and bovine whole fibrinogen to compete the interaction between the bacteria and the target cell. […] Then, the ability Fg1 to inhibit the adhesion of bacteria and RON PIE was evaluated on the 3 main types cell. […]

HaCaT cells = assay: O2°− production by P. acnes-stimulated HaCaT (spectrofluorimetry, DHE); format: cell-based, human; details: bacteria first pretreated, 0.87 to 7 μM
Procedure: FIG. 14: Dose-dependent inhibition of O2^∘− production by keratinocytes stimulated by P. acnes pre-treated by recombinant peptide. HaCaT cell were incubated for 18 h with P. acnes PIE strain at a concentration adjusted to 0.2 of absorbance at 600 nm (blue bar) and with P. acnes pretreated with recombinant peptide Fg1 (light gray bar) and Fg2 (dark gray bar). Measurement of superoxide anion production was realized by spectrofluorometry as described in Materials and Methods. Control experiment was done on unstimulated HaCaT cell (red bar). Data are means±S.D. of three separate experiments. Statistical significance is indicated by * (P<0.05), ** (P<0.01), *** (P<0.001), and **** (P<0.0001), respectively.
(§1) For experiences of stimulation with P. acnes, cells were incubated with the P. acnes suspension adjusted at the appropriate concentration, pre-treated for 1 h at 37° C. or not with fibrinogen recombinant peptides Fg1 and Fg2 at the concentrations 0.87, 1.75, 3.5 or 7 μM for the desired period of time at 37° C. in 5% CO2.
(§2) All cells lines (5·10^4 to 10^5 cells/well) were seeded in 96-well plates (Corning Costar, Brumath, France) and treated as previously described. After stimulation, cells were washed three times in PBS and incubated with 100 μl per wells of 5 μM DHE (for determination of O2^●−) or 5 μM H2-DCFDA (for determination of H2O2) for 30 min as described previously and fluorescence intensity was recorded every hour over a period of 5 h. Fluorescence excitation/emission maxima were for DHE: 480/610 nm and for H2-DCFDA: 507/525 nm. At the end of the experiment, the number of adherent cells was evaluated by the crystal violet assay as described below. […] Levels of ROS were calculated in each sample as follows: reactive oxygen species rate (arbitrary units/min/10^6 cells)=(fluorescence intensity [arbitrary units] at T5h—fluorescence intensity [arbitrary units] at To/300 minutes/number of adherent cells as measured by the crystal violet assay, and were expressed as arbitrary unit (A.U.). […]

HDF cells = assay: O2°− production by P. acnes-stimulated HDF; format: cell-based, human; details: 0.87 to 7 μM
Procedure: as §1
All cells lines (5·10^4 to 10^5 cells/well) were seeded in 96-well plates (Corning Costar, Brumath, France) and treated as previously described. After stimulation, cells were washed three times in PBS and incubated with 100 μl per wells of 5 μM DHE (for determination of O2^●−) or 5 μM H2-DCFDA (for determination of H2O2) for 30 min as described previously and fluorescence intensity was recorded every hour over a period of 5 h. Fluorescence excitation/emission maxima were for DHE: 480/610 nm and for H2-DCFDA: 507/525 nm. At the end of the experiment, the number of adherent cells was evaluated by the crystal violet assay as described below. O2^●−, and H2O2 were assayed by spectrofluorimetry on a Fusion spectrofluorimeter (PackardBell, Paris, France). Levels of ROS were calculated in each sample as follows: reactive oxygen species rate (arbitrary units/min/10^6 cells)=(fluorescence intensity [arbitrary units] at T5h—fluorescence intensity [arbitrary units] at To/300 minutes/number of adherent cells as measured by the crystal violet assay, and were expressed as arbitrary unit (A.U.).
To assess the efficacy of Fg1 recombinant peptide, the production of O2^∘− and H2O2 by HaCaT cells NHDK, THP-1, MRC5 and HDF stimulated by pretreated P. acnes strains 6919, RON and PIE was measured. The amount of ROS produced was compared to that produced by the stimulated cells with untreated bacteria. Production baseline was obtained by measuring ROS on unstimulated cells. The production of IL-1ß, IL-8, IL-12 and TNF-α was also measured in all conditions cited above. The measurement of the production of ROS is performed by spectrofluorimetry in the presence of specific fluorochromes directly on the monolayer cell. Measurement of cytokine production was performed in parallel on the cell culture supernatant.
Two sets of experiments were implemented: 1) The cells were stimulated (18 h at 37° C.) by P. acnes strains previously pretreated with Fg1 and Fg2 peptides at the final concentrations ranging from 0.87 to 7 μM for 1 h at 37° C.; and 2) The cells were pretreated first with Fg1 and Fg2 peptides at the final concentrations ranging from 0.87 to 7 μM for 24 h at 37° C. and stimulated (18 h at 37° C.) by P. acnes strains.

[2] = system: HaCaT, NHDK, THP-1, MRC5 and HDF; assay: O2°− production by cells stimulated with P. acnes, overall statement for the five cell lines; format: cell-based, human; details: pretreatment of P. acnes strains; five cell lines and three strains tested
Procedure: as §1, §2

B1: MKRMVSWSFHKLKTMKHLLLLLLCVFLVKSQGVNDNEEGFFSARGHRPLDKKREEAPSLRPAPPPISGGGYRARPAKAAATQKKVERKAPDAGGCLHADPDLGVLC (protein)
chain: MKRMVSWSFHKLKTMKHLLLLLLCVFLVKSQGVNDNEEGFFSARGHRPLDKKREEAPSLRPAPPPISGGGRARPAKAAATQKKVERKAPDAGGCLHADPDLGVLCMKRMVSWSFHKLKTMKHLLLLLLCVFLVKSQGVNDNEEGFFSARGHRPLDKKREEAPSLRPAPPPISGGGYRARPAKAAATQKKVERKAPDAGGCLHADPDLGVLC
modifications: GST fusion; fragment Fg1
notes: fragment of Bß chain of human fibrinogen having 106 amino acids; recombinant GST-fused peptide expressed in E. coli
Inhibition of the recognition between Pfg and human fibrinogen [1]: dramatically decreased | Inhibition of adhesion of P. acnes RON strain (P. acnes RON strain): inhibits the adhesion of RON strain in a dose-dependent manner | Inhibition of Superoxide anion (O2°−) production (HaCaT cells; P. acnes 6919, set I): pos | Inhibition of Superoxide anion (O2°−) production (HaCaT cells; P. acnes PIE, set I): pos | Inhibition of Superoxide anion (O2°−) production (HaCaT cells; P. acnes RON, set I): pos | Inhibition of Superoxide anion (O2°−) production (HDF cells; P. acnes 6919, set I, bacteria first pretreated): pos | Inhibition of Superoxide anion (O2°−) production (HDF cells; P. acnes 6919, set II, cells first pretreated): pos | Inhibition of Superoxide anion (O2°−) production (HDF cells; P. acnes PIE, set I, bacteria first pretreated): pos | Inhibition of Superoxide anion (O2°−) production (HDF cells; P. acnes PIE, set II, cells first pretreated): pos | Inhibition of Superoxide anion (O2°−) production (HDF cells; P. acnes RON, set I, bacteria first pretreated): pos | Inhibition of Superoxide anion (O2°−) production (HDF cells; P. acnes RON, set II, cells first pretreated): pos | Inhibition of O2°− production [2]: in a dose-dependent manner
